Test results taken from paper PMC10345191.

Legend:
Assay in all cases: cryo-EM structure
[1] = target: ConM SOSIP soluble gp140 Env trimer, unmodified (GMP) (HIV-1 (group M consensus))
[2] = target: ConSOSL.UFO soluble gp140 Env trimer, unmodified (GMP) (HIV-1 (group M consensus))
[3] = target: EDC cross-linked ConM SOSIP soluble gp140 Env trimer (GMP) (HIV-1 (group M consensus))
[4] = target: EDC cross-linked ConSOSL.UFO soluble gp140 Env trimer (GMP) (HIV-1 (group M consensus))

Substance: ConM SOSIP soluble gp140 Env trimer, unmodified (GMP) (complex)
- stoichiometry N [1]: 3

Substance: ConSOSL.UFO soluble gp140 Env trimer, unmodified (GMP) (complex)
- stoichiometry N [2]: 3

Substance: EDC cross-linked ConM SOSIP soluble gp140 Env trimer (GMP) (complex)
- stoichiometry N [3]: 3

Substance: EDC cross-linked ConSOSL.UFO soluble gp140 Env trimer (GMP) (complex)
- stoichiometry N [4]: 3
